The experiment relates to human monocyte-derived macrophages (MDMs). Kind of experiment: Phagocytosis of pHrodo-labeled apoptotic neutrophils by MDMs. Type of experiment: cell-based. To be noted: protein S 25 nM, AF647-Annexin V 25 nM. The method, then: Neutrophils were cultured in the absence (black) or presence of Apo-15 (gray: 100 nM, white: 300 nM). Data presented as mean values ± SEM (n = 3). b Representative histograms of glucocorticoid-treated human MDMs after phagocytosis of pHrodo^TM-labeled neutrophils in the presence of different concentrations of Apo-15. Cells were analyzed using a 5L LSR cytometer with MDM identified based on their distinctive forward and side scatter properties (n = 4). Gating strategy in Supplementary Fig. 15A. c Flow cytometric quantification of phagocytosis of pHrodo^TM-labeled neutrophils by human MDMs. Human MDMs and neutrophils were co-cultured in the absence or presence of protein S (25 nM) and Apo-15 (60 or 600 nM) or AF647-Annexin V (25 nM). Data presented as mean values ± SEM (n ≥ 3). d Representative brightfield and fluorescence microscope images (from four independent experiments) of Apo-15-treated human neutrophils (green) in co-culture with human MDMs. […]
One potential limitation to the use of annexins for imaging apoptosis is their interference with the clearance of apoptotic cells by phagocytes. […] We examined whether Apo-15 affected the engulfment of apoptotic cells using a well-established in vitro assay to quantify the extent of phagocytosis in human monocyte-derived macrophages (MDMs) in the presence of the PS-opsonin protein S (Fig. 4b)[32],[33]. […]

Here are results for one molecule from publication PMC7423924, “A fluorogenic cyclic peptide for imaging and quantification of drug-induced apoptosis” (Nature Communications, 2020).

“And” between values parts separate entries of the source, which are not always exact repeats. Identical values can stand only once.

B1: Annexin V: fluorescently-labeled (AF647) annexin V, PS-binding protein (protein, UniProt P08758 2-320, looked up)
Annexin A5: AQVLRGTVTDFPGFDERADAETLRKAMKGLGTDEESILTLLTSRSNAQRQEISAAFKTLFGRDLLDDLKSELTGKFEKLIVALMKPSRLYDAYELKHALKGAGTNEKVLTEIIASRTPEELRAIKQVYEEEYGSSLEDDVVGDTSGYYQRMLVVLLQANRDPDAGIDEAQVEQDAQALFQAGELKWGTDEEKFITIFGTRSVSHLRKVFDKYMTISGFQIEETIDRETSGNLEQLLLAVVKSIRSIPAYLAETLYYAMKGAGTDDHTLIRVMVSRSEIDLFNIRKEFRKNFATSLYSMIKGDTSGDYKKALLLLCGEDD
modifications: AF647 label
For the molecule B1, for the setting “40 min, 37 °C, single replicates”, the “Phagocytosis assay (%)” value is 30.0% and 35.0% and 33.0%. For the same molecule, for the setting “Apo-15 60 or 600 nM”, the “Reduction of the phagocytic capacity of MDMs” value is on record as ~ 50%.
